{"source": "patent US20250152743A1", "about": "“SYNPOPTOSIS CIRCUITS FOR PROGRAMMABLE CELL DEATH CONTROL” (California Institute of Technology, priority 2023, published 2025)", "molecules": {"B1": {"name": "tobacco vein mottling virus protease (protein)", "chain": "MGSSKALLKGVRDFNPISACVCLLENSSDGHSERLFGIGFGPYIIANQHLFRRNNGELTIKTMHGEFKVKNSTQLQMKPVEGRDIIVIKMAKDFPPFPQKLKFRQPTIKDRVCMVSTNFQQKSVSSLVSESSHIVHKEDTSFWQHWITTKDGQCGSPLVSIIDGNILGIHSLTHTTNGSNYFVEFPEKFVATYLDAADGWCKNWKFNADKISWGSFTLVEDAPEDDFMAKKTVAAIMDS", "notes": "viral input protease"}, "B2": {"name": "FIG. 1D, fourth module: GSDMA N-terminal domain with internal TEVP cleavage site; SEQ ID NO: 19 (protein)", "chain": "MGSPVFEDVTRALVRELNPRGDLTPLDSLIDFKHFRPFCLVLRKRKSTLFWGARYVRTDYTLLDLLEPGSSPSDLTDSGNFSFKENLYFQSNMLDVQVQGLVEVPKTVKVKGTAGLSQSSTLEVQTLSVAPSALENLKKERKLSADHSFLNEMRYHEKNLYVVMEAVEAKQEVTVEQTGNANAIFSLPSLALLGLQGSLNNNKAVTIPKGCVLAYRVRLLRVFLFNLWDIPYICNDSMQTFPKIRRVPCSAFISPTQMISEEPEEEKLIGE"}, "B3": {"name": "I217N: GSDME N-terminal domain mutant I217N; SEQ ID NO: 22 (protein)", "chain": "MGFAKATRNFLREVDADGDLIAVSNLNDSDKLQLLSLVTKKKRFWCWQRPKYQFLSLTLGDVLIEDQFPSPVVVESDFVKYEGKFANHVSGTLETALGKVKLNLGGSSRVESQSSFGTLRKQEVDLQQLIRDSAERTINLRNPVLQQVLEGRNEVLCVLTQKITTMQKCVISEHMQVEEKCGGIVGIQTKTVQVSATEDGNVTKDSNVVLEIPAATTNAYGVIELYVKLDGQFEFCLLRGKQGGFENKKRIDSVYLDPLVFREFAFIDMPD"}, "B4": {"name": "silencer: leucine zipper-fused GSDMA C-terminal domain; SEQ ID NO: 43 (protein)", "chain": "MGSEQLEKKLQALEKKLAQLEWKNQALEKKLAQGGSGSSMHEDFKTLKEEVQRETQEVEKLSPVGRSSLLTSLSHLLGKKKELQDLEQKLEGALDKGQKVTLEALPKDVLLSKDAMDAILYFLGALTELTEEQLKILVKSLEKKILPVQLKLVESTLEQNFLQDKEGVFPLQPDLLSSLGEEELTLTEALVGLSGLEVQRSGPQYAWDPDTRHNLCALYAGLSLLHLLSRKSNALTYCALS"}, "B5": {"name": "wildtype GSDME: natural substrate for caspase-3; SEQ ID NO: 21 (protein)", "chain": "MGFAKATRNFLREVDADGDLIAVSNLNDSDKLQLLSLVTKKKRFWCWQRPKYQFLSLTLGDVLIEDQFPSPVVVESDFVKYEGKFANHVSGTLETALGKVKLNLGGSSRVESQSSFGTLRKQEVDLQQLIRDSAERTINLRNPVLQQVLEGRNEVLCVLTQKITTMQKCVISEHMQVEEKCGGIVGIQTKTVQVSATEDGNVTKDSNVVLEIPAATTIAYGVIELYVKLDGQFEFCLLRGKQGGFENKKRIDSVYLDPLVFREFAFIDMPDAAHGISSQDGPLSVLKQATLLLERNFHPFAELPEPQQTALSDIFQAVLFDDELLMVLEPVCDDLVSGLSPTVAVLGELKPRQQQDLVAFLQLVGCSLQGGCPGPEDAGSKQLFMTAYFLVSALAEMPDSAAALLGTCCKLQIIPTLCHLLRALSDDGVSDLEDPTLTPLKDTERFGIVQRLFASADISLERLKSSVKAVILKDSKVFPLLLCITLNGLCALGREHS"}, "B6": {"name": "FIG. 1D, third module: GSDMA N-terminal domain fused to TEVP-removable degron; SEQ ID NO: 18 (protein)", "chain": "MGSPVFEDVTRALVRELNPRGDLTPLDSLIDFKHFRPFCLVLRKRKSTLFWGARYVRTDYTLLDLLEPGSSPSDLTDSGNFSFKNMLDVQVQGLVEVPKTVKVKGTAGLSQSSTLEVQTLSVAPSALENLKKERKLSADHSFLNEMRYHEKNLYVVMEAVEAKQEVTVEQTGNANAIFSLPSLALLGLQGSLNNNKAVTIPKGCVLAYRVRLLRVFLFNLWDIPYICNDSMQTFPKIRRVPCSAFISPTQMISEEPEEEKLIGEGGSGLENLYFQSGSGSISLIAALAVDYVIGMENAMPWNLPADLAWFKRNTLNKPVIMGRHTWESIGRPLPGRKNIILSSQPSTDDRVTWVKSVDEAIAACGDVPEIMVIGGGRVIEQFLPKAQKLYLTHIDAEVEGDTHFPDYEPDDWESVFSEFHDADAQNSHSYCFEILERR"}, "B7": {"name": "FIG. 1D, fifth module: GSDMA N-terminal domain fused to TEVP site-caged N-degron; SEQ ID NOs: 20, 40 (protein)", "chain": "MGSENLYFQRHKSGAWKLPVSLVKPVFEDVTRALVRELNPRGDLTPLDSLIDFKHFRPFCLVLRKRKSTLFWGARYVRTDYTLLDLLEPGSSPSDLTDSGNFSFKNMLDVQVQGLVEVPKTVKVKGTAGLSQSSTLEVQTLSVAPSALENLKKERKLSADHSFLNEMRYHEKNLYVVMEAVEAKQEVTVEQTGNANAIFSLPSLALLGLQGSLNNNKAVTIPKGCVLAYRVRLLRVFLFNLWDIPYICNDSMQTFPKIRRVPCSAFISPTQMISEEPEEEKLIGEMGSENLYFQRHKSGAWKLPVSLVKPVFEDVTRALVRELNPRGDLTPLDSLIDFKHFRPFCLVLRKRKSTLFWGARYVRTDYTLLDLLEPGSSPSDLTDSGNFSFKNMLDVQVQGLVEVPKTVKVKGTAGLSQSSTLEVQTLSVAPSALENLKKERKLSADHSFLNEMRYHEKNLYVVMEAVEAKQEVTVEQTGNANAIFSLPSLALLGLQGSLNNNKAVTIPKGCVLAYRVRLLRVFLFNLWDIPYICNDSMQTFPKIRRVPCSAFISPTQMISEEPEEEKLIGE"}}, "test_system": "HEK cells", "experiment": "Transient DNA transfection of HEK cells, Annexin/Sytox staining, flow cytometry", "type": "cell-based, human", "conditions": "for pyroptosis, Sytox staining: with TEVP / cognate protease", "method": "HEK cells were transiently co-transfected with DNA encoding the circuits, often along with Cherry, a fluorescent protein marker, and cells were analyzed by flow cytometry 16 to 24 hours later. To quantify cell death, the cells were strained with Annexin, Sytox, or both. Annexin stains apoptotic cells by binding to phosphatidylserine exposed on the outer leaflet, and pyroptotic cells by binding to phosphatidylserine in the inner leaflet after membrane permeabilization. In contrast, Sytox, a membrane-impermeable dye, primarily stains pyroptotic cells. Therefore, apoptotic cells are typically Annexin-high and Sytox-low, while pyroptotic cells are Annexin-high and Sytox-high (FIG. 7B). For simplicity, in experiments involving only a single death mode, a single relevant dye was often used. To focus on cells influenced by the circuits, the fraction of Annexin- or Sytox-positive cells was calculated after gating on the fluorescent co-transfection marker (FIG. 7C).\nOn the day before transfection, HEK cells were seeded at a density of 0.3-0.6 million cells per well on a 12-well plate, 0.1-0.3 million cells per well on a 24-well plate, or 15,000-50,000 cells per well on a 96-well plate. The cells were allowed to attach to the plate overnight, for at least 8 hours. On the day of transfection, we treated the cells with purified DNA plasmids encoding circuit components. In addition to plasmids encoding circuit components, we often included a plasmid encoding a fluorescent co-transfection marker, at roughly 50 ng DNA per well on a 24-well plate. Given the different number of molecular components in each synthetic circuit and their various relative ratios, the total amount of DNA ranged from 50 to 1 μg per well on a 24-well plate, and was scaled by […] when other 12-well or 96-well plates were used, respectively. On the same plate, we often equalized the total amount of DNA across all transfected wells, using a filler plasmid encoding the neomycin resistance gene. To transfect cells with plasmid DNA, we used three types of transfection reagents—Lipofectamine 2000 (Thermo Fisher), Lipofectamine 3000 (Thermo Fisher), and FuGENE HD (Promega), according to manufacturers' instructions. Briefly, for a typical transfection experiment on a 24-well plate, we mixed plasmids and the transfection reagent, around 200 ng of DNA per 1 μl of Lipofectamine 2000, in 25 μl of Opti-MEM reduced serum medium (Thermo Fisher), incubated the mixture for 5-10 min at room temperature, and then added another 25 μl of Opti-MEM before transferring the mixture dropwise to culture wells. We also performed some transfection experiments using the Lipofectamine 3000 kit (Thermo Fisher), at a ratio of 2,000 ng of DNA, 2 ul of 4 ul of P3000, and 3 μl of Lipofectamine 3000. We similarly diluted the mixture in Opti-MEM before adding it to cells. For transfection with FuGENE, we used a ratio of 4 μl FuGENE:1 μg of DNA, and incubated the DNA-FuGENE mixture at room temperature for 5 min before transfection. To enable protein expression from plasmids with a doxycycline-inducible promoter, doxycycline was added to the cell culture at a final concentration of 100 ng/mL. In experiments involving Q-VD-OPh, the compound was added to the cell culture at a final concentration of 30 μM, immediately after the cells received the transfection mixture. To transfect cells with in vitro transcribed mRNA, Lipofectamine MessengerMax (Thermo Fisher) was used. Briefly, for transfection of one well in a 96-well plate, 0.1 μL of Lipofectamine MessengerMAX was diluted in 1.25 μL Opti-MEM and incubated for 10 minutes at room temperature. mRNA was then added to Opti-MEM to the appropriate conditions at the following amounts: 12.5 ng of fluorescent co-transfection marker, 56.25 ng of protease, and 56.25 ng of engineered executioner. Diluted mRNA was then added to diluted MessengerMAX reagent and incubated for 5 minutes at room temperature before addition to Jurkat or THP-1 cells in RPMI media. […]", "key": {"[1]": {"conditions": "co-transfected with wildtype GSDME, TEVP and TEVP-activatable caspase-3"}}, "note": "Like-named read-outs stand apart in the source and are kept apart here."}
{"molecule": "B1", "values": [{"measurement": "activation of cognate engineered GSDMs containing the cleavage sites", "setting": "tev, tvmv and hcv sites", "value": "orthogonally activated their cognate engineered GSDMs"}]}
{"molecule": "B2", "values": [{"measurement": "pyroptosis, Sytox staining", "value": "abolished its activity"}]}
{"molecule": "B3", "values": [{"measurement": "inhibition of wildtype GSDME N-induced pyroptosis", "value": "capable of inhibiting the wildtype counterpart"}, {"measurement": "pyroptotic activity of GSDME N-terminal domain mutant", "value": "defective in inducing pyroptosis"}, {"measurement": "apoptosis, Annexin levels", "setting": "[1]", "value": "permitting caspase-3-induced apoptosis, as read out by high Annexin levels"}, {"measurement": "pyroptosis, Sytox uptake", "setting": "[1]", "value": "suppressed pyroptosis, as evidenced by reduced Sytox uptake"}, {"measurement": "pyroptosis, Sytox uptake", "setting": "co-transfected with wildtype GSDME, TEVP and TEVP-activatable caspase-3, listed as GSDME inhibitor", "value": "pyroptosis could be attenuated to various degrees"}, {"measurement": "inhibition of wildtype GSDME N-induced pyroptosis", "setting": "listed as GSDME N(mut)", "value": "inhibited wildtype GSDME N-induced pyroptosis"}]}
{"molecule": "B4", "values": [{"measurement": "inhibition of pyroptosis induced by wildtype GSDMA N-terminal domain", "value": "did not inhibit pyroptosis"}, {"measurement": "inhibition of pyroptosis induced by zipper-attached GSDMA N-terminal domain (GSDMA N-Z)", "value": "markedly suppressed pyroptosis"}, {"measurement": "inhibition of pyroptosis induced by zipper-attached GSDMA N-terminal domain (GSDMA N-Z)", "setting": "listed as GSDMA Z-C", "value": "potently inhibited an engineered active executioner"}]}
{"molecule": "B5", "values": [{"measurement": "mode of cell death, Sytox and Annexin double staining", "setting": "background of TEVP activating TEVP-activatable caspase-3", "value": "caused pyroptosis in response to TEVP-mediated caspase-3 activation"}, {"measurement": "cell death by the protein alone", "setting": "without caspase-3 activation", "value": "alone did not induce cell death"}]}
{"molecule": "B6", "values": [{"measurement": "pyroptosis, Sytox staining", "value": "removal of the degron by TEVP also induced pyroptosis"}]}
{"molecule": "B7", "values": [{"measurement": "pyroptosis, Sytox staining", "value": "allowed protease-mediated suppression of pyroptosis"}]}
